In PMC6879612 (Nature Communications, 2019):

Biological target: T1, p53_(125–134)/HLA-A24 pMHC, soluble recombinant (Homo sapiens, HLA-A*24:02, biotin where the biotinylated pMHC was used (site not stated))
T1 construct: HLA-A24 heavy chain (α-chain), recombinant; β2-microglobulin, recombinant; source: biotinylated or non-biotinylated; copies: + +
Assay: ELISA; biotinylated pMHC captured on NeutrAvidin-coated wells; IgG1 in solution, detected with HRP anti-human IgG Fcγ
Conditions: both partners purified

B1: P1C1 (parental clone), human IgG1 (antibody, V domains shown)
VH: QLQLQESGPGLVKPSQTLSLTCAVSGGSISSGGYYWSWIRQRPGKGLEWIGYIYYSGSTYYNPSLKSRLTISVDTSKNQFSLKLSSVTAADTAVYYCARENFGAFDHWGQGTLVTVSS
VL: QAVLTQPSSVSGAPGQRVTISCTGSSSNIGADYETHWYQHLPGTAPKLLIYGNTNRPSGVPHRFSGSKSGTSASLAITGLQAEDEADYYCQSYDSNLSAWVFGGGTKLTIL
notes: heavy framework 1 of the parental clone; heavy CDR1 (Kabat); heavy framework 2, CDR2, framework 3; heavy CDR3 (Kabat); heavy framework 4; light framework 1 of the parental clone; light CDR1 (Kabat); light framework 2, CDR2, framework 3; light CDR3 (Kabat); light framework 4; Human IgG1; From a naive human Fab phage library (Humanyx); also called parental P1C1 antibody; source: HEK293-6E, pTT5 …
Q: Does B1 bind?
A: binds
